Values quoted from earlier work as cited in patent US9889085B1, “Therapeutic methods for the treatment of diabetes and related conditions for patients with high baseline HbA1c” (Intarcia Therapeutics, Inc., priority 2014, dated 2018).

Settings: in vivo

Row | Substance | half-life
1 | EGTFTSDVSSYLEGQAAKEFIAWLVKGR [GLP-1] | approximately 2 minutes
2 | PYY: 36 amino acid residue peptide amide | approximately 8 minutes
